{"source": "paper PMC8494340", "about": "“Enhancers with cooperative Notch binding sites are more resistant to regulation by the Hairless co-repressor” (PLoS Genetics, 2020)", "binders": {"B1": {"name": "Drosophila Notch intracellular domain, NICD (aa 1763–2142) (domain or fragment, UniProt P07207 1763-2142, looked up)", "chain": "VLSTQRKRAHGVTWFPEGFRAPAAVMSRRRRDPHGQEMRNLNKQVAMQSQGVGQPGAHWSDDESDMPLPKRQRSDPVSGVGLGNNGGYASDHTMVSEYEEADQRVWSQAHLDVVDVRAIMTPPAHQDGGKHDVDARGPCGLTPLMIAAVRGGGLDTGEDIENNEDSTAQVISDLLAQGAELNATMDKTGETSLHLAARFARADAAKRLLDAGADANCQDNTGRTPLHAAVAADAMGVFQILLRNRATNLNARMHDGTTPLILAARLAIEGMVEDLITADADINAADNSGKTALHWAAAVNNTEAVNILLMHHANRDAQDDKDETPLFLAAREGSYEACKALLDNFANREITDHMDRLPRDVASERLHHDIVRLLDEHVPR", "notes": "Notch, Drosophila, intracellular domain, residues 1763-2142"}, "B2": {"name": "Drosophila Mastermind (aa 87–307) (domain or fragment, UniProt P21519 87-307, looked up)", "chain": "PYNANLGATGGIAGITGGNGAGGPTNPGAVPTAPGDTMPTKRMPVVDRLRRRMENYRRRQTDCVPRYEQAFNTVCEQQNQETTVLQKRFLESKNKRAAKKTDKKLPDPSQQHQQQQHQQQQQHQQHQQHQQAQTMLAGQLQSSVHVQQKFLKRPAEDVDNGPDSFEPPHKLPNNNNNSNSNNNNGNANANNGGNGSNTGNNTNNNGNSTNNNGGSNNNGSE", "notes": "Mastermind, Drosophila, residues 87-307; also called Mam; MAM"}}, "target": "T1, Drosophila Su(H) (aa 98–523) (Drosophila, UniProt P28159 98-523)", "T1 construct": "Suppressor of Hairless, Su(H), Drosophila, residues 98-523; also called Suppressor of Hairless; CSL transcription factor", "T1 sequence (P28159 98-523)": "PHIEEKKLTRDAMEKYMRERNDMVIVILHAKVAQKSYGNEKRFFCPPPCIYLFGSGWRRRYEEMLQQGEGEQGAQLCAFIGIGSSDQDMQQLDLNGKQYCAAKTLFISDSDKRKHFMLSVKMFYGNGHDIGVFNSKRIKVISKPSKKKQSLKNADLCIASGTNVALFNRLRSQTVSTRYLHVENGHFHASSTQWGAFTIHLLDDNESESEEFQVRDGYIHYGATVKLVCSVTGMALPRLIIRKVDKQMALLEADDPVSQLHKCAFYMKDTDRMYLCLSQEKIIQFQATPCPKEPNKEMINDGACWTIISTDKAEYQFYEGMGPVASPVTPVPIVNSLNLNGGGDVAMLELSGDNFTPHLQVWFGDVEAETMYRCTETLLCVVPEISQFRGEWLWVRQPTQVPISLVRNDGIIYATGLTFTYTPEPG", "experiment": "native gel or EMSA; purified proteins mixed with fluorescently labelled 2xCSL17 and 1xSPS15 DNA probes, room temperature 20 minutes; Su(H) 2.5 to 160 nM, 2 μM Hairless or NICD/Mam; the protein complexes are seen bound to the DNA probe; band intensities fitted to a 2-site equilibrium model", "details": "both partners purified", "data": [{"binder": "B1", "values": [{"measurement": "binding result", "value": "binds"}]}, {"binder": "B2", "values": [{"measurement": "binding result", "value": "binds"}]}]}
